Results published in paper PMC2735620.

Biological target: Gαi/13 (N-terminally hexahistidine tagged chimera), AlF4−-activated
Test: flow cytometry protein interaction assay

| Ki [nM] | Binder |
| --- | --- |
| 20 | LARG RH/DH/PH-F1098D (domain or fragment) SPSTRIAPHIIGAEDDDFGTEHEQINGQCSCFQSIELLKSRPAHLAVFLHHVVSQFDPATLLCYLYSDLYKHTNSKETRRIFLEFHQFFLDRSAHLKVSVPDEMSADLEKRRPELIPEDLHRHYIQTMQERVHPEVQRHLEDFRQKRSMGLTLAESELTKLDAERDKDRLTLEKERTCAEQIVAKIEEVLMTAQAVEEDKSSTMQYVILMYMKHLGVKVKEPRNLEHKRGRIGFLPKIKQSMKKDKEGEEKGKRRGFPSILGPPRRPSRHDNSAIGRAMELQKARHPKHLSTPSSVSPEPQDSAKLRQSGLANEGTDAGYLPANSMSSVASGASFSQEGGKENDTGSKQVGETSAPGDTLDGTPRTLNTVFDFPPPPLDQVQEEECEVERVTEHGTPKPFRKFDSVAFGESQSEDEQFENDLETDPPNWQQLVSREVLLGLKPCEIKRQEVINELFYTERAHVRTLKVLDQVFYQRVSREGILSPSELRKIFSNLEDILQLHIGLNEQMKAVRKRNETSVIDQIGEDLLTWFSGPGEEKLKHAAATFCSNQPFALEMIKSRQKKDSRFQTFVQDAESNPLCRRLQLKDIIPTQMQRLTKYPLLLDNIAKYTEWPTEREKVKKAADHCRQILNYVNQAVKEAENKQRLEDYQRRLDTSSLKLSEYPNVEELRNLDLTKRKMIHEGPLVWKVNRDKTIDLYTLLLEDILVLLQKQDDRLVLRCHSKILASTADSKHTFSPVIKLSTVLVRQVATDNKALDVISMSDNGAQIYELVAQTVSEKTVWQDLICRMAASVKEQS |
| 540 | LARG RH/DH/PH-E354K (domain or fragment) SPSTRIAPHIIGAKDDDFGTEHEQINGQCSCFQSIELLKSRPAHLAVFLHHVVSQFDPATLLCYLYSDLYKHTNSKETRRIFLEFHQFFLDRSAHLKVSVPDEMSADLEKRRPELIPEDLHRHYIQTMQERVHPEVQRHLEDFRQKRSMGLTLAESELTKLDAERDKDRLTLEKERTCAEQIVAKIEEVLMTAQAVEEDKSSTMQYVILMYMKHLGVKVKEPRNLEHKRGRIGFLPKIKQSMKKDKEGEEKGKRRGFPSILGPPRRPSRHDNSAIGRAMELQKARHPKHLSTPSSVSPEPQDSAKLRQSGLANEGTDAGYLPANSMSSVASGASFSQEGGKENDTGSKQVGETSAPGDTLDGTPRTLNTVFDFPPPPLDQVQEEECEVERVTEHGTPKPFRKFDSVAFGESQSEDEQFENDLETDPPNWQQLVSREVLLGLKPCEIKRQEVINELFYTERAHVRTLKVLDQVFYQRVSREGILSPSELRKIFSNLEDILQLHIGLNEQMKAVRKRNETSVIDQIGEDLLTWFSGPGEEKLKHAAATFCSNQPFALEMIKSRQKKDSRFQTFVQDAESNPLCRRLQLKDIIPTQMQRLTKYPLLLDNIAKYTEWPTEREKVKKAADHCRQILNYVNQAVKEAENKQRLEDYQRRLDTSSLKLSEYPNVEELRNLDLTKRKMIHEGPLVWKVNRDKTIDLYTLLLEDILVLLQKQDDRLVLRCHSKILASTADSKHTFSPVIKLSTVLVRQVATDNKALFVISMSDNGAQIYELVAQTVSEKTVWQDLICRMAASVKEQS |
